Results published in the supplement of paper PMC9732359.
± gives the uncertainty stated by the source.

Assay: protein stability index of a GFP-peptide fusion (yeast GPS) (PSI 1-4); higher = more stable; sorted into four equal gates, so the index is relative within each strain
Details: doa10∆
Procedure, shortened: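 Sequencing reads from sorted gates were used to score each peptide. The library consisted of tiled 17-residue yeast protein peptides fused downstream of GFP on a Cherry-expressing plasmid, pooled and carried in yeast. Mid-log cultures in leucine-free medium were split into four equal gates by GFP/Cherry ratio, and each gate's plasmids were PCR-amplified and Illumina-sequenced. The protein stability index adds up, over all gates, the read frequency multiplied by the gate number.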

In the case of PTHIWNAKRSHMMKRWG [POP1], the protein stability index is reported as 2.35 ± 0.075.

Same assay, conditions: pdr5∆

NTNELKEVSSFLMGIFN [MTR3] and NTNTENENRNTGAGVDV [SNF11] are within error of each other in protein stability index: 3.06 ± 0.061 for the first, 2.98 ± 0.045 for the second.

Compared with NTQDLLLLLSLFKKITN [YML103C/NUP188], NVFGTLQRHSGISSTLV [YLR018C/POM34] is higher in protein stability index: 1.3 ± 0.033 for the first, 2.01 ± 0.096 for the second.

NVNMTVNTMGTGGQTID [MED6] and NVNNNNIGQQQVKKPRK [SWI1] are within error of each other in protein stability index: 3.44 ± 0.12 for the first, 3.37 ± 0.16 for the second.

NVPVHVSPAFRVQVGDI [RPS11A] and NVQLRDVIATEPQGAVT [SMD3] are within error of each other in protein stability index: 3.15 ± 0.08 for the first, 2.98 ± 0.1 for the second.

First: NVRSVIRSSRSRGIVIG [RPP1]
Second: NVVEIWVFSYLRWFELK [SIR3]
The protein stability index of the first is higher: 3.1 ± 0.078 for the first, 1.38 ± 0.066 for the second.

Compared with NVVGKLISIISSVIQNY [YML103C/NUP188], NWAKFTATASLGVIHKG [RPN2] is higher in protein stability index: 1.44 ± 0.078 for the first, 1.81 ± 0.053 for the second.

Going from NWRRLSGRNIHLAVVCV [SSN2] to NYGMIAINPGRVAASFS [FAS1], the protein stability index rises from 1.58 ± 0.044 to 1.89 ± 0.09.

Compared with NYILNFKQSNSETFLQF [CDC53], NYLNDMHDSNLQNNSDS [SKP1] is higher in protein stability index: 1.43 ± 0.1 for the first, 2.59 ± 0.063 for the second.

Compared with NYSSESYRNAFTNVLTK [YJL039C/NUP192], NYTQNIDNLESYAGIST [SIR2] is higher in protein stability index: 2.38 ± 0.067 for the first, 2.96 ± 0.09 for the second.

Compared with PADSTYGAYNTQIANAG [PRE4], PAEVGRAIRSEKYGKQV [BRR2] is higher in protein stability index: 2.03 ± 0.067 for the first, 3.15 ± 0.073 for the second.

First: PAFSFGAKPEEKKDDNS [YJL041W/NSP1]
Second: PAHTKYMLIEEAASSNK [ITC1]
The protein stability index of the first is higher: 3.26 ± 0.13 for the first, 2.93 ± 0.11 for the second.

PAHTVIIKGTDVYSPEK [BRR2] and PALVGKLRGDLREAPAD [SNF6] are within error of each other in protein stability index: 3.19 ± 0.077 for the first, 3.12 ± 0.19 for the second.

PANAEPQAVTITSIMDD [ITC1] and PAQKDSSVVSEPKKPSF [YOR098C/NUP1] are within error of each other in protein stability index: 2.83 ± 0.09 for the first, 2.71 ± 0.05 for the second.

Going from PDGTLIASAGKDGEIML [ASC1] to PDRHVIFLAERRILPKP [RPS7B], the protein stability index falls from 3.26 ± 0.091 to 2.75 ± 0.14.

Going from PDVKSLVQLSTMETKTL [SIR4] to PEPSHIDQVMMSVSDND [RET1], the protein stability index falls from 2.83 ± 0.073 to 2.06 ± 0.045.

Going from PFDQNLDSNNNNSNSNN [SWI1] to PFFSSNTSSLQSFQNPF [YIL149C/MLP2], the protein stability index falls from 2.74 ± 0.037 to 2.25 ± 0.055.

PFGAKSTKSNKAKNPLT [RPL8B] and PFGAKSTKSNKTRNPLT [RPL8A] are within error of each other in protein stability index: 3.1 ± 0.067 for the first, 2.99 ± 0.062 for the second.

Compared with PFGVSTIFGGVDKNGAH [PRE10], PFHSHLLVPASDLINKD [FAS1] is lower in protein stability index: 2.98 ± 0.069 for the first, 2.15 ± 0.035 for the second.

Going from PFLHLRKKTPAGDWKYD [FAS2] to PFLLMELHKKLVEAAKL [YDL116W/NUP84], the protein stability index falls from 3.32 ± 0.2 to 1.13 ± 0.093.

PFLNETKPGVYYVPYSK [RPC82] and PFNKPNIETGENHNGQS [SWI3] are within error of each other in protein stability index: 2.97 ± 0.13 for the first, 3.16 ± 0.12 for the second.

Going from PFTDITVEGISKLLREH [RPB2] to PGDIVRAQVLSLGDGTN [CSL4], the protein stability index rises from 2.4 ± 0.079 to 3.26 ± 0.12.

First: PGGAASKSVPTPSLPIA [SNF5]
Second: PGSSITETEVEREQPQE [SRB4]
The protein stability index of the first is lower: 3.07 ± 0.056 for the first, 3.38 ± 0.12 for the second.

Compared with PHDLIIGTADIFIRQLK [BRR2], PIDIFQIIRRVKEMEPK [SIR3] is higher in protein stability index: 2.51 ± 0.069 for the first, 3.22 ± 0.18 for the second.

Going from PIGRDGKLAKPRQLHNT [RPB2] to PILAPSVKDYRPAEETE [RPS3], the protein stability index rises from 2.88 ± 0.068 to 3.13 ± 0.051.

Going from PIPDARNAALRAKAEAA [SCL1] to PKDKAIKRMAIRNIVEA [RPS26A], the protein stability index falls from 2.69 ± 0.11 to 1.63 ± 0.096.

PKEVDGLEVGPVVQVGI [IRR1] and PKFAIQDNHHITKVTEN [YMR129W/POM152] are within error of each other in protein stability index: 2.98 ± 0.088 for the first, 2.88 ± 0.058 for the second.

Compared with PKFGVEGLIRLDNLTED [DIS3], PKGATYGKPTNQGVNEL [RPL15A] is higher in protein stability index: 2.86 ± 0.068 for the first, 3.22 ± 0.085 for the second.

Compared with PKHSYLSGNPLTSVTND [SIR4], PKIDEDDTWYNLTEFVQ [AAR2] is higher in protein stability index: 3.03 ± 0.071 for the first, 3.23 ± 0.086 for the second.

Compared with PKILIREHERVILKQIL [SWP82], PKWERVFLFDIEKVDRE [RRI2] is higher in protein stability index: 2.18 ± 0.092 for the first, 2.33 ± 0.056 for the second.

Compared with PKYESLKLEYYNLLVKI [RPN5], PLAAGNFVSEKGDLRRG [RPC53] is higher in protein stability index: 1.48 ± 0.1 for the first, 3.4 ± 0.19 for the second.

Compared with PLAPAPINLPPQIAQLP [SNF5], PLARNYIKSMDLISKKT [RPR2] is higher in protein stability index: 2.09 ± 0.064 for the first, 3.01 ± 0.063 for the second.

First: PLEKITDAYLDQYLWYE [PRP8]
Second: PLFFVDLKLLFNTEAEQ [RGR1]
The protein stability index of the first is higher: 3.36 ± 0.18 for the first, 2.83 ± 0.063 for the second.

First: PLINLALIDTEFANFEL [YML103C/NUP188]
Second: PLKFKLGPLSYQNMAFI [YJR042W/NUP85]
The protein stability index of the first is higher: 2.72 ± 0.071 for the first, 2.55 ± 0.06 for the second.

PLKIHRTPYLTSLKKIK [SWI1] and PLLLVGLDKFSNIDIRV [RPS16A] are within error of each other in protein stability index: 1.82 ± 0.043 for the first, 1.76 ± 0.049 for the second.

PLPAVFSAPIRPDIVHT [RPL4A] and PLPSHALTVQEVLNRVA [YDL116W/NUP84] are within error of each other in protein stability index: 2.35 ± 0.04 for the first, 2.37 ± 0.042 for the second.

Compared with PLSRINENENFGYDIPL [YML103C/NUP188], PLSTYNKNGNAVCSTAT [PGD1] is lower in protein stability index: 3.14 ± 0.095 for the first, 2.63 ± 0.075 for the second.

Compared with PLYARYINVNPQEETIT [ECM29], PLYVMDEIDAALDFRNV [SMC4] is lower in protein stability index: 2.85 ± 0.059 for the first, 2.33 ± 0.066 for the second.

PMHSIMPNSSLQPFYSQ [DSN1] and PNFLGNCNIKDFKPPYI [SWP82] are within error of each other in protein stability index: 2.65 ± 0.061 for the first, 2.64 ± 0.041 for the second.

Compared with PNIHQNLLPKKSAKATK [HTA1], PNKVKTEDIRIRAQNFK [RRP6] is higher in protein stability index: 2.66 ± 0.082 for the first, 2.88 ± 0.082 for the second.

Compared with PNTRDAESEAITVTAKQ [SWI3], PPQAGDRSLADDYDYVM [RPB8] is lower in protein stability index: 3.23 ± 0.056 for the first, 2.99 ± 0.11 for the second.

First: PPSLKIIDGPKALILAP [PRP28]
Second: PQDDDSQSKMMSSQISS [MTR3]
The protein stability index of the first is lower: 1.77 ± 0.07 for the first, 3.17 ± 0.071 for the second.

PQEETITFLIEKAKEMI [ECM29] and PQFNSPYDSNNSNTNLN [SWI1] are within error of each other in protein stability index: 3.18 ± 0.13 for the first, 3.03 ± 0.047 for the second.

Compared with PQLSKAGKFPTPVSHND [RPL1A], PQMFLNQQAQARQQVAQ [GAL11] is lower in protein stability index: 2.87 ± 0.048 for the first, 2.46 ± 0.13 for the second.

Going from PQTMEHYKQQIAVLIEL [YCS4] to PRETIPFLHLRKKTPAG [FAS2], the protein stability index falls from 3.05 ± 0.12 to 2.43 ± 0.1.

First: PRGLNSARKLRVHRRNN [RPS23A]
Second: PRINNISAEDRADTDLA [SNF2]
The protein stability index of the first is higher: 3.06 ± 0.079 for the first, 2.51 ± 0.14 for the second.

PRQTKKAKAQAQAQAQA [PGD1] and PRSDDLEATWNFIEPGI [CDC53] are within error of each other in protein stability index: 3.46 ± 0.056 for the first, 3.29 ± 0.13 for the second.

PRVSNQSNEDTFLPSYM [RRI2] and PSEFHCLQDALDAIDDF [SSN2] are within error of each other in protein stability index: 3.05 ± 0.09 for the first, 3.16 ± 0.067 for the second.

Going from PSIPLVIIRRLKTRDWI [POP1] to PSKGQSLSKISQAFDIV [RPP1], the protein stability index rises from 1.69 ± 0.073 to 3.19 ± 0.085.

PSLKDSSSNGGGSAKPS [RPC53] and PSLNKTINGKVNGRTKS [GAL11] are within error of each other in protein stability index: 2.82 ± 0.14 for the first, 3.07 ± 0.13 for the second.

Going from PSNFEINAEEIVDFTLP [PRP8] to PSNSTTTLHGPGFQLPN [SRB8], the protein stability index falls from 3.18 ± 0.082 to 2.85 ± 0.096.

First: PSPYKTTVYRYSAAKKI [YAR002W/NUP60]
Second: PSRTRETATSERNASEV [GRR1]
The protein stability index of the first is lower: 1.98 ± 0.05 for the first, 3 ± 0.12 for the second.

PSSLNSDKIPYVAPTKK [SRB4] and PSTGSNLQQQQQQQIQV [YGR119C/NUP57] are within error of each other in protein stability index: 2.59 ± 0.1 for the first, 2.55 ± 0.19 for the second.
